Assay results taken from article PMC6201588, “Molecular cloning and characterization of vanillin dehydrogenase from Streptomyces sp. NL15-2K” (BMC Microbiology, 2018).

What was measured:
[1] = tested on: NC(=O)c1ccc[n+]([C@@H]2O[C@H](COP(=O)(O)OP(=O)(O)OC[C@H]3O[C@@H](n4cnc5c(N)ncnc54)[C@H](O)[C@@H]3O)[C@@H](O)[C@H]2O)c1; assay: purified protein; details: co-substrate vanillin, pH 9.5, varied: cofactor
COc1cc(C=O)ccc1O = assay: purified protein; details: co-substrate NAD+ (0.5 mM in standard assay), 30 °C, pH 9.5
[2] = target: vanillin dehydrogenase from Streptomyces sp. NL15-2K (recombinant) (Streptomyces sp. NL15-2K); assay: SEC; gel filtration of purified recombinant VDH on Superdex 200 10/300 GL, calibrated with thyroglobulin, ferritin, aldolase, conalbumin and ovalbumin; native mass compared with the subunit mass by SDS-PAGE

## VDH (vanillin dehydrogenase) from Streptomyces sp. NL15-2K (Streptomyces sp. NL15-2K; S2A)
[1]
  Km: 647 ± 40.0 µM
  kcat: 23.45 ± 0.59 s^− 1
COc1cc(C=O)ccc1O
  Km: 8.47 ± 0.91 µM
  kcat: 9.35 ± 0.77 s⁻¹
  kcat/Km: 1.11e+06 ± 100000 M⁻¹ s⁻¹

## vanillin dehydrogenase from Streptomyces sp. NL15-2K (recombinant) (enzyme)
[2]
  stoichiometry N: 4
